Among the data in paper PMC10953559 are share of the total signal intensity, GroEL14-NanA1 complex, share of the total signal intensity, GroEL14-NanA2 complex and stoichiometry N (NanA monomers per GroEL14) values, retold here.

Where “and” joins values, the source holds several entries; their conditions need not be identical. Equal values may be shown once.

The target of the assay is GroEL14 as used with the substrate proteins NanA and DapA (E. coli) (UniProt P0A6F5). As to the kind of experiment: native MS; CE-MS; 6 µM GroEL14 with 6 or 12 µM substrate monomers, denatured in 6.5 M GuHCl and 9 mM DTT and diluted 30-fold into GroEL14 buffer pH 7.5 (200 mM GuHCl, 0.3 mM DTT left); no ATP, no GroES; BGE 50 mM ammonium acetate pH 6.7.

Sequence of N-acetyl neuraminic acid aldolase, denatured monomer (NanA) (P0A6L4 2-297): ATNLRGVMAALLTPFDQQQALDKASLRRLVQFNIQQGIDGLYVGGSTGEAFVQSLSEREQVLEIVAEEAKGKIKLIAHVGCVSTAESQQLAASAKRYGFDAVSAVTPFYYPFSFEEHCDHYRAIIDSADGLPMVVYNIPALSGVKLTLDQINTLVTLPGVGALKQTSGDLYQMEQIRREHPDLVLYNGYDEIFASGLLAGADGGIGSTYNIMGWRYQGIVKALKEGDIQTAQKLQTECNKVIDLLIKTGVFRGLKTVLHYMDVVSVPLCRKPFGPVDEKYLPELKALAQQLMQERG

On to “N-acetyl neuraminic acid aldolase, denatured monomer (NanA) (from UniProt P0A6L4 2-297) (enzyme)”, for which the share of the total signal intensity, GroEL14-NanA1 complex worked out at 10%; the share of the total signal intensity, GroEL14-NanA2 complex was 90%; the stoichiometry N (NanA monomers per GroEL14) was 1 and 2.
